How the values were obtained:
[1] = target: melanocortin 4 receptor (MC4R) (Homo sapiens) (UniProt P32245); assay: cell-based or functional assay
[2] = target: melanocortin 4 receptor (MC4R) (Homo sapiens) (UniProt P32245); assay: competitive binding assay (range of obtained IC50 values); competitor [125I]-NDP-alpha-MSH

Sequence of UniProt P32245 (P32245 whole entry V103I): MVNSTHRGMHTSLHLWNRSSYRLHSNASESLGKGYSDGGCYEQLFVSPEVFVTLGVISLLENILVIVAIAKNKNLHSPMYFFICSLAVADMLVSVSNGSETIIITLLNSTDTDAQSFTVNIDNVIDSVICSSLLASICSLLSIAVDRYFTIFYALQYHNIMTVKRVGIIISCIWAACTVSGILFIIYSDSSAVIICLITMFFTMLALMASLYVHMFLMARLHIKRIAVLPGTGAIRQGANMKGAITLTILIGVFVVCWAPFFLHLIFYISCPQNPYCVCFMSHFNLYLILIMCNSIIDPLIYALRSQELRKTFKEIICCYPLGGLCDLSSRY

EC50, cAMP production, CHOK1 Clone 1 (high MC4R expression) [1]: 0.52 nM
EC50, cAMP production, CHOK1 Clone 2 (low MC4R expression) [1]: 0.52 nM
IC50 [2]: 5 to 30 nM
Substance: melanotan II (MTII) (peptide)

— patent publication US20060105951A1
